The values below come from patent US20030064943A1.

The target of this assay is human transforming growth factor β2 (TGFβ2) (human) (UniProt P61812). The assay can be described thus: cell-based or functional assay.
Chain of human transforming growth factor β2 (TGFβ2) (human) (P61812 303-414): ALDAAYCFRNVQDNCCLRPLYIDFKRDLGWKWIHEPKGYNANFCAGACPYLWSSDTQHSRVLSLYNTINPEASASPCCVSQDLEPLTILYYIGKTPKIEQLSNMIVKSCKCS

Consider latency associated peptide (LAP), for which the Ki, reversal of TGFβ2-mediated inhibition of 3H-thymidine incorporation in mink lung epithelial cells came out at 500 pM.
